Assay [1] addresses T1, Flag-Star-PAP (full length) (human, UniProt Q9H6E5 1-874).
T1 construct: Expressed in HEK 293 cells and purified on anti-FLAG M2 resin together with its associated complex; also called Flag tagged Star-PAP; full-length Star-PAP; not shown: FLAG tag
T1 sequence: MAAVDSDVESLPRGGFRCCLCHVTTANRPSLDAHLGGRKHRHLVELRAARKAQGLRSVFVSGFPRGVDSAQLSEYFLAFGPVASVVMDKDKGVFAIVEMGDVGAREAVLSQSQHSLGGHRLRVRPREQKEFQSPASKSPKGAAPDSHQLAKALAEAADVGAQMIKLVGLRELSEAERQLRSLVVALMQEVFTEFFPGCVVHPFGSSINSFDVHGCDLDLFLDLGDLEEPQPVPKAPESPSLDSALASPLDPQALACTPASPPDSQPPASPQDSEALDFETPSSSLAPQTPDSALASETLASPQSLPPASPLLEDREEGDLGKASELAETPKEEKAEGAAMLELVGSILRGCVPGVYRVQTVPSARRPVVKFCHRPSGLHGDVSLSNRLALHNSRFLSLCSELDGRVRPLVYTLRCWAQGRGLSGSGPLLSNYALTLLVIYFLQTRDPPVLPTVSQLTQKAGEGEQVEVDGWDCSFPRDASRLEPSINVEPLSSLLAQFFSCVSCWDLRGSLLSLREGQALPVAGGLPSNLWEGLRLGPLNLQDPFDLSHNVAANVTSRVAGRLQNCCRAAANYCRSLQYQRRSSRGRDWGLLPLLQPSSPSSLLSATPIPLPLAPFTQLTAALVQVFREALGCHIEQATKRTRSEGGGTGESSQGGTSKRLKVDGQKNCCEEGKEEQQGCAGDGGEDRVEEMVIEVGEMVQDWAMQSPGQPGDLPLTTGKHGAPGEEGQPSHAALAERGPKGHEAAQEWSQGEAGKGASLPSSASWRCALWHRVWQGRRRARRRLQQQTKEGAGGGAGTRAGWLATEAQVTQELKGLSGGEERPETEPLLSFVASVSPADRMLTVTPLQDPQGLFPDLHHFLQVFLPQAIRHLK
As to the kind of experiment: FLAG affinity purification from HEK 293 cells, western blot. The procedure:
(§1) Affinity purification of Flag-Star-PAP and Flag-PAPα and their associated complex of proteins in parallel allowed a comparison of the complexes formed by Star-PAP and PAPα in more detail. Flag tagged Star-PAP and PAPα were purified from HEK 293 cells stably expressing Flag-Star-PAP or Flag-PAPα (following manufacturer's instructions; Sigma-Aldrich) and the presence of endogenous symplekin, CPSF¹⁰⁰, CPSF⁷³, CstF⁶⁴, RNA Pol II, Sm protein (Y12) and PIPKIα was assessed by western blotting. Like Flag-PAPα, Flag-Star-PAP associates with symplekin, CPSF¹⁰⁰ and CPSF⁷³, further confirmation that Star-PAP may function in an mRNA polyadenylation complex (FIG. 7). Also detected with both PAPs was a faster migrating form of RNA Pol II and Sm protein (Y-12), a component of the spliceosome, which is consistent with reports that the machinery for splicing and polyadenylation are coupled.
In general terms: A western blot detects proteins with antibodies after separation by electrophoresis.

For assay [2], the target named is T2, Flag-PAPα (canonical poly(A) polymerase) (Homo sapiens (Human), UniProt P51003 1-745, limits assumed).
T2 construct: not shown: FLAG tag
T2 sequence (P51003 whole entry): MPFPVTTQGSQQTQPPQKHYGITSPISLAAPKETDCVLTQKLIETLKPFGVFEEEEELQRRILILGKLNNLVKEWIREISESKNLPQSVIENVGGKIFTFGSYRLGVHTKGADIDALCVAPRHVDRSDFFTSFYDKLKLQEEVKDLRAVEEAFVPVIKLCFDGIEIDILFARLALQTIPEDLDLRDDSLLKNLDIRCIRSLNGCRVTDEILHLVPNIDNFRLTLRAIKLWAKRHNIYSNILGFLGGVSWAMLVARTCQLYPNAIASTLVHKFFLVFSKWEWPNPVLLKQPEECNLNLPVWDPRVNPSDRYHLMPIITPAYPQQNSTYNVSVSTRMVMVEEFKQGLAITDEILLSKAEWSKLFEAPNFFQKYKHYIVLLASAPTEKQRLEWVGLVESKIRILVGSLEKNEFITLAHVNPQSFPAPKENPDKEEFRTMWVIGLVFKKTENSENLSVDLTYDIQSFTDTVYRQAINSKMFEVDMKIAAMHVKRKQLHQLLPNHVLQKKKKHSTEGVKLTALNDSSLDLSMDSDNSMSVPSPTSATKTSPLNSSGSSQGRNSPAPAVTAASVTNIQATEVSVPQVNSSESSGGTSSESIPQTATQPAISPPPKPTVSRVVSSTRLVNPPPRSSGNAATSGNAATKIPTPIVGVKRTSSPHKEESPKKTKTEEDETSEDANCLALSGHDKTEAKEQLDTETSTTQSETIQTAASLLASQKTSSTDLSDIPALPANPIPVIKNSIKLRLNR
The description is as above. As for the experimental part: as §1

B1: CPSF-100 (Cleavage and Polyadenylation Specificity Factor subunit 100) (other, human, UniProt Q9P2I0 1-782, looked up)
chain: MTSIIKLTTLSGVQEESALCYLLQVDEFRFLLDCGWDEHFSMDIIDSLRKHVHQIDAVLLSHPDPLHLGALPYAVGKLGLNCAIYATIPVYKMGQMFMYDLYQSRHNTEDFTLFTLDDVDAAFDKIQQLKFSQIVNLKGKGHGLSITPLPAGHMIGGTIWKIVKDGEEEIVYAVDFNHKREIHLNGCSLEMLSRPSLLITDSFNATYVQPRRKQRDEQLLTNVLETLRGDGNVLIAVDTAGRVLELAQLLDQIWRTKDAGLGVYSLALLNNVSYNVVEFSKSQVEWMSDKLMRCFEDKRNNPFQFRHLSLCHGLSDLARVPSPKVVLASQPDLECGFSRDLFIQWCQDPKNSIILTYRTTPGTLARFLIDNPSEKITEIELRKRVKLEGKELEEYLEKEKLKKEAAKKLEQSKEADIDSSDESDIEEDIDQPSAHKTKHDLMMKGEGSRKGSFFKQAKKSYPMFPAPEERIKWDEYGEIIKPEDFLVPELQATEEEKSKLESGLTNGDEPMDQDLSDVPTKCISTTESIEIKARVTYIDYEGRSDGDSIKKIINQMKPRQLIIVHGPPEASQDLAECCRAFGGKDIKVYMPKLHETVDATSETHIYQVRLKDSLVSSLQFCKAKDAELAWIDGVLDMRVSKVDTGVILEEGELKDDGEDSEMQVEAPSDSSVIAQQKAMKSLFGDDEKETGEESEIIPTLEPLPPHEVPGHQSVFMNEPRLSDFKQVLLREGIQAEFVGGVLVCNNQVAVRRTETGRIGLEGCLCQDFYRIRDLLYEQYAIV
notes: also called SPSF-100
For the molecule B1, in assay [1], the binding result is on record as “binds”.

B2: CstF-64 (Cleavage-Stimulatory Factor subunit 64) (other, human, UniProt P33240 1-577, looked up)
chain: MAGLTVRDPAVDRSLRSVFVGNIPYEATEEQLKDIFSEVGPVVSFRLVYDRETGKPKGYGFCEYQDQETALSAMRNLNGREFSGRALRVDNAASEKNKEELKSLGTGAPVIESPYGETISPEDAPESISKAVASLPPEQMFELMKQMKLCVQNSPQEARNMLLQNPQLAYALLQAQVVMRIVDPEIALKILHRQTNIPTLIAGNPQPVHGAGPGSGSNVSMNQQNPQAPQAQSLGGMHVNGAPPLMQASMQGGVPAPGQMPAAVTGPGPGSLAPGGGMQAQVGMPGSGPVSMERGQVPMQDPRAAMQRGSLPANVPTPRGLLGDAPNDPRGGTLLSVTGEVEPRGYLGPPHQGPPMHHVPGHESRGPPPHELRGGPLPEPRPLMAEPRGPMLDQRGPPLDGRGGRDPRGIDARGMEARAMEARGLDARGLEARAMEARAMEARAMEARAMEARAMEVRGMEARGMDTRGPVPGPRGPIPSGMQGPSPINMGAVVPQGSRQVPVMQGTGMQGASIQGGSQPGGFSPGQNQVTPQDHEKAALIMQVLQLTADQIAMLPPEQRQSILILKEQIQKSTGAP
In the case of B2, the values for the binding result in assay [1] and in assay [2] were “binds” and “no binding”, respectively.

B3: CPSF-73 (Cleavage and Polyadenylation Specificity Factor subunit 73) (enzyme, human, UniProt Q9UKF6 2-684, looked up)
chain: SAIPAEESDQLLIRPLGAGQEVGRSCIILEFKGRKIMLDCGIHPGLEGMDALPYIDLIDPAEIDLLLISHFHLDHCGALPWFLQKTSFKGRTFMTHATKAIYRWLLSDYVKVSNISADDMLYTETDLEESMDKIETINFHEVKEVAGIKFWCYHAGHVLGAAMFMIEIAGVKLLYTGDFSRQEDRHLMAAEIPNIKPDILIIESTYGTHIHEKREEREARFCNTVHDIVNRGGRGLIPVFALGRAQELLLILDEYWQNHPELHDIPIYYASSLAKKCMAVYQTYVNAMNDKIRKQININNPFVFKHISNLKSMDHFDDIGPSVVMASPGMMQSGLSRELFESWCTDKRNGVIIAGYCVEGTLAKHIMSEPEEITTMSGQKLPLKMSVDYISFSAHTDYQQTSEFIRALKPPHVILVHGEQNEMARLKAALIREYEDNDEVHIEVHNPRNTEAVTLNFRGEKLAKVMGFLADKKPEQGQRVSGILVKRNFNYHILSPCDLSNYTDLAMSTVKQTQAIPYTGPFNLLCYQLQKLTGDVEELEIQEKPALKVFKNITVIQEPGMVVLEWLANPSNDMYADTVTTVILEVQSNPKIRKGAVQKVSKKLEMHVYSKRLEIMLQDIFGEDCVSVKDDSILSVTVDGKTANLNLETRTVECEEGSEDDESLREMVELAAQRLYEALTPVH
notes: also called CSPF-73
For the molecule B3, the binding result in assay [1] and in assay [2] was “binds” in each case.
